# In the domain aggregation screens of Martell et al. (2025):
# Test: soluble fraction after stress (log2 fold change); higher = more stays soluble; pooled small domains, quantitative proteomics
# Conditions: stress: 75 degC
# 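Further: 20 min heating vs room temperature control held 20 min.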
row,Sequence,soluble fraction (log2)
1,HMHKLTIEEALNYKTPANAGGPYSGKPFRDIYDQRGKAAVISFAKYYLSKATPEDPMVEVYRTLLDGAMEL,-1.61
2,HMHKREKSFFETIYDDIPGIGKKRRVQLLSAYPTLDSLKSVTLEELKQIVPEESAKLILEKRDSR,0.0151
3,HMHPARITATVRVGEGDLVDIEREAELGGPIHSKGVMILSSFLGARYARTVPLSLSASLVFEQSY,0.0581
4,HMHPDALTEREREVLSLLADGLSNREIAARLVLALGTVKWYISVIYSKLGVTRRTQAIARARELHLV,-0.0116
5,HMHPEETVNLILDAAFRLFLEKGYEHTSIQDIIGQLGGLSKGAIYHHFNSKEDILIAVTDRMTA,-2.12
6,HMHPEQTLEKIVDISAELFAKKGYEQTSIQDILDATGLSKGGLYHHFKSKEEILEAVMQKRVQY,-0.154
7,HMHPFELNTVTEGQLKRLPFLSDLQIRELLEYRSRYGKMLTLYELKNVEAFDLETISLLVPFIYISEI,-1.36
8,HMHPKTPDELLALMSEEQRGQIEQLAKLVLMAVSYSGASYYDAVTTMYPRMSEERRRIITHVLNTASP,-0.908
9,HMHPLFRVVLAGEPNGVGLDDWLTRHEAELINGPSAIGVLTVKIAMGRRSFETVLDEIRADGETIFVEPV,-3.49
10,HMHPTDMKLTARLEEGAQFVRTQQLSKAIEIFTEVIKLDQNWAEAWNKRATVFYMMGKFKQSQEDIDKVLA,0.0611
11,HMHPTEKNLTSLLADGSFYMNQNKLETAYDTFTKTIELDPSWAEAWNKRATVLYLMGKYELSQADIDQV,0.0869
12,HMHPVTGRIGTVTAANGLNLRADSSEYANVVATLGYGVDVTVTGERINGFYPVRVGTLSGYVSADYVSFNS,-1.23
13,HMHQVHKIDGVKYYLHLVEKGNTLYGISKQYNVSVERIEKANTEALSDGLKENQTLLIPVTSDNKKT,-0.537
14,HMHREITGSLAERNGRYTAILNLYDEDGKRRQKSIALGIPVKGNKRKAQAQLEELKRAYSLGLPQ,-0.346
15,HMHRGTPASIIAAAKQYLTGGQTVELYEREGGPWTFRLRTYLSETPYPEKVRASVEALKPAGVVFLYELQS,-0.019
16,HMHRIKRRNDTLVSALDSIAGIGAKRKKALLQHFGSVRAIKAVSAEEIAKVEGISPTLANQIFEAL,-1.07
17,HMHRTMFYLDVDLAEGQSVKMAVHEDDDPGELAARFADEHQLKSRAMEKLRSVIEENVRLHRRNQ,-0.57
18,HMHRTRNAERTRAAVLKAAAEVLAERGTGASLARIAEVAGVSKSGLLHHFANREQLIVALLED,-1.16
19,HMHSIFPVIRSTSFPTKSNDGELFITSDHTAETRIYYALDLGNTYRLIDQKVMNEINLTESLVKETARF,-1.72
20,HMHSILDDIEGIGPARRKALMRHYMNLDAIKSATVEELAAVPSMNEKSAKAVHNFFHQQKKD,0.0285
21,HMHSKQRDAIFENLRSRKDHPTAEEIYLSLKPAMPAISLATVYRNLAQLENEGLILRLGSGGSARYDGDT,-0.467
22,HMHSLGDQVFETIKELIVNNTYQPGELLQIDKLAAEFGVSTTPVREALLRLEGLGLVDIERNKAAVVT,0.447
23,HMHSPLLDRYLAEVGWRLRHLSGAQREDILAGLREHIADLESAGVAPEEIVARLGSPESVADAAAGEF,-0.0802
24,HMHSPTFYVHVVGQVKVPGVYELEVGSRLFDAVIAAGGFKDDADQASVNLARPLSDGEQIVVLKLGDQ,-0.777
25,HMHTADDFKQLAKQTSNGQLRTRYLALYLFKNGETRTQIATYLGVARGSVNTWVSNYLAHGLEGLQSKP,-2.95
26,HMHTSEDLEKLLTRYFQSHESINRQQFEQLSGFTRTTASRRLKALVEAGKLKNIGLHHFPVYKPTEGNF,-0.485

row,Sequence,soluble fraction (log2)
1,HMHVGVWIMNEKGEILLEQRASNKKVDPNKWARIGGHVDAGEKPIQAIQREILEEIGVKIPLENFIVLET,-0.266
2,HMHVLAVDEALHKLTELNELHAKIVEMRFFSGMTVQEVADELGVSKRKIESEWTMIKAWLRKELN,-0.199
3,HMHVSLSGKIHSELRKLILNGELKAGERLPSEPDLAHELGVSRNSLREAIGLLQREGLLLKKHGIGTFVTD,-1.42
4,HMHVYQSLVTDRVVPGGGYRTTEAILSTEAWRNTLLEQAKRELIGVRNKYASLTELAKVWTAIDTVT,-1.65
5,HMHYALTVDFPAALEARIDPAHRAALRGVLAHDPRPSYQSDPERLYGVAFAGKNVKFTVEDGVLTVRKIEE,-0.151
6,HMHYKLIIFENHTKSTSLDITPEQARQILGVTDYTPEQYEILAEITNRPASYFMDDLVDYYVD,-2.33
7,HMHYNMNYLENLTKTELFDLAKNKFGLTYAEMERHLSIPEGGARYAIKAEHSKYGSDIKKYLVEFLLE,-1.06
8,HMIADPAKPDWTTILAPVTTGTTVTHKTFGQGTVTKLDKTKKYLTVSFAAGQKNFVFPNAFIDGFLK,-0.159
9,HMIADSSSIHQDAKQQLHSYLRTNIQPLMRAGKQLDLKDILHHVTIRKPKLVQQLGMKQVQHMVQVLLD,-1.04
10,HMIAGHLQEKKGFFYIVLSYPDAAGKRKTKWFPTKLSVKGNKKKAEVMLMDARKTFVPPETPL,-0.497
11,HMIAITVGSKVRVKAGATFSDGTKPFTEVYNTVYDVQLLSRNGKEARIGIGEQWTGWMYISDLYPADQ,-3.42
12,HMIAPQISSGKVNTKELNVRSGPATTFGIVKKLPLNAMVGIFEEKNGWFRIATGQWVSKTYVDL,-2.33
13,HMIAVLEEGSRFRAINDISGKPFGPEMIIKNGQVIAAGKKILTKPKKLIGKKEGTKFNISGKEYVIKDI,-0.747
14,HMIAWNFDTMKESLSEMERVDYQEFIKAFLSLELSISDRTILNQVYQDYMDEDDLSLISDELRV,0.0602
15,HMIDDNTIIQIGDSYSKSIRLLGEPIELKNRSLNQKSYFMAVYDFKGRRYRLFFENDVLFDILRD,-2.66
16,HMIDELLDPTHRIMVRHPRVDYVSPGFLIGPDKDVILWGFTGGIIARLFDFLGWTRPWDQSHVQDLPPYML,-0.245
17,HMIDENILSEEIKHYIETNNYAKDDKLPSERSLASLFNVSRALVRKSLISLVDVNYLYVKDKSGYYING,-0.0579
18,HMIDEPENLIQEDKMVNIIYDLALLEGVKTFNSSNFQSVKSNDFVYKKYKIDSLQFAKSTQFYASDINR,0.0618
19,HMIDFDEIEILSSSKIEKIENSEYLKSSIFEKDSNQYIYRLSFENRDQLKNFKKEIEDIDQIKKIDVTY,0.0545
20,HMIDHKVIRSFRQKRNMTLQELAQKANLSVSYLSEIELGKKQPSLETLDKLSKALNISLEGL,-0.535
21,HMIDHLPPQRAAVLAFLQRELVAGRSPSLAEIALAFGFASRNAAQKHVQALVADGLLEQATGRSRGLRLPG,-2.17
22,HMIDIGSKIKKLRSKKSIEIGKKYTGAMLANELGISRSYLGDIESGRTVPNEIILGKIADIFDVDIYELIG,-1.06
23,HMIDLPEAFIQQLKEAVDVGDVTGLRELLGQLRRRYPQQSALSDEAERLLREFDFERLAQLFEGLD,-1.67
24,HMIDNFFTIRFNYSKINEVIRLLKEFNGEIFNKNYDKNEYIIEFSIPKKDAALLISKLKNITGLTIEQ,-1
25,HMIDQIAEQLQQRLAVDTAFATIQRDYPDVIANKDIELLTAIKVNQKIAEGASRASAMLESAKEVYETL,0.196
26,HMIDRPLTLVEDYERFAGELAKITLRFMLDGRKRFNGRLAGFDEDGKIVLETSFGRFAFSFDEIDSARI,-3.08

row,Sequence,soluble fraction (log2)
1,HMIDSVFASYRQVALDDELWDKVRNGAVLPKVELFEVMDGPVLFTYQSKIVAMYEPHPTKAGYIKPRKMFL,-2.09
2,HMIDTTKILPGQEFKNMQELSVALTGQKMPAGKGYVLQQEKFKLYFSWKKITGTHKLIIDEIYEEPKT,-3.23
3,HMIDYIKYTVDGKTYELINNWDGTWSRELEAPLVAGRYDLLLEISQNGLVTYIDSSDPRYEFYLDVI,-3.02
4,HMIEESTVPDLKGKSQEDAIKLLEDANLKYQIVEEESKKIEAGYVISQETDANKKVNAGDTVIIHVST,0.645
5,HMIEFYTMQDMFYFKLTGDNTSRERREALGKILGIGYGNATQMVSRLNNYGISKEEFSKAIEEIEKQLEA,-2.89
6,HMIEIKNLSFSYGKKKQSVFNDFSLTLDKGSVYGLLGKNGTGKSTLLYLMTGLLRPQAGQVLYKGVDVS,0.141
7,HMIEKVNDYVVRFANVNGTGSASANNLFALAIYRMGVPVTPKNIFPSNIQGLPTWFEVRVSGSGYLARRG,0.162
8,HMIELDRTNLLGVFGPKSRPYALLMLSNGEMIKISIGDQFFGWRVYGIDEKSIQVQNGTKQEILRIP,-3.91
9,HMIENGILELKGKTGVAQTVLRPSGKVLIDDEIYDAVALTGYIEKADKVLVTKVEATQLYVEK,-0.0378
10,HMIERLVVSPAAGVFTKKMSVENNTRIDVGHVLGHVGETEVRSPFAGILQNYIAVDGERLTAHQPIAWLRS,-0.0936
11,HMIERVLRTEEHIEAFAGEEVEAKLFAPIDGKKTLRGILGGIEDGRVILTVGDTEYRIEHAKISRLTTVFD,-0.881
12,HMIESVMVGIKELLGDTIDQKYEKYIRLGGIPSDEVDEFNSVFSAYEKVNGNHNGKKKYDYVMNNLPIIPV,-0.574
13,HMIETIQVPRAFNDWHEQADKTKSVFEVYAEIEASENEKLIAWVRNNQNEFAKIWLGALIPELE,-1.7
14,HMIGHIGSAVMLNAKLRPRLPLLHVLALTQSLGERLSAAEAQPEVYRWSDPGQSRVIAEFEGGRLTRWRLE,-2.05
15,HMIGVIVDEVDPDSSLKSGDIITEVNREVILNIDDFVGLVEQIQKTGRSSLLLKILRDKKSLWVTIQFV,0.267
16,HMIHQIPVNVQKIRQIIGINLNENDYLNYLAKLGFVIDEGLIIVPSFRSDVKTQNDLAEEIARV,-0.547
17,HMIINFDAIKLTTELNKYKRHKAIPNTFFDGTYTILDVRELYNDLTPKAQKIADELIEHYNVDVK,-1.73
18,HMIINLGELLKMLEVNKYQDAMDALDSLIEEGGSLEKIESLHEIRQHTHAMNFREAERLLSILIESEGA,-1.73
19,HMIISPKKLEYRQRIINALGDRKMSLNELSKAMGYKGITTKLSFTVDDMIKSGVIEKVMVGAYAKLHIP,-2.33
20,HMIIVMKRNATETQIDHVVRWVESIGYRAHRSNGTEQTVVKAVGGERGGEELKYLAALSGVEKVVPIR,-1.49
21,HMIKDSKAAYKILGVDENATNEEIKKAYRQLVINHHPDKVSHLGEDIQRAANEKLKQINAAYDEIKKQRGF,-0.0128
22,HMIKEGDLVFIWNPKKGDSFLIKVQPGQSQGTHFGQIKHSEIMEHNYGEGIRTPKGQVYYLLRPTLGEFTR,-1.4
23,HMIKEVGYEKFMQMTEEEDIGRVEIDQEENQITFTDKDETAIYKTGMVDDPDLTERLYDAGAEFS,0.0721
24,HMIKIDESTLSEDELKIFEILKIEDKNIENIAIESKILPGKLLATLMNMEMKKIVVQYPGKVFGLNRKLK,-1.81
